# From the DeepSol protein solubility set
# Assay: soluble on expression in E. coli; label from the status in PepcDB or PDB records
row,Sequence,soluble on expression in E. coli
1,MATLRIGLVSISDRASSGVYQDKGIPALEEWLTSALTTPFELETRLIPDEQAIIEQTLCELVDEMSCHLVLTTGGTGPARRDVTPDATLAVADREMPGFGEQMRQISLHFVPTAILSRQVGVIRKQALILNLPGQPKSIKETLEGVKDAEGNVVVHGIFASVPYCIQLLEGPYVETAPEVVAAFRPKSARRDVSE,soluble
2,MLQNSRIKMNPKKLYQADGHAVQELLPAMKILYQAKAEDPNTDNSPKWTQVKNKLSSKMQEVRITRQLSSQLPETGALLSELLSRQEFISQQHERAASRAVPLAEAEKVLQATVQNIAQETEQLSNKLNNVASDEAELDEKIERKKREYEQLQKRFAKLQSFRPQYMDEYERFEERLKKLYEVYVLNFRNLSYLRKVHDDLARSERQRQEELEKAMRMAVEKMRLEQEKKDAIGLHDDDGSDAPLVDRRQSVRKVYGNMMGGDASDDDEDDEDDEDDEIIRMDDNVAQHHKRELHRQEEDEERSEADYMVGITTAHVADDAKSDLSSGDDF,not soluble
3,MSLVMSDTLNSLQLGERPEGRTLLTASWVVGHKDGSHRLLKNGEVVFENGEILFVGHGFPGEVARRIDFGNALVSPGLIDLDALSDLDTTILGIDHHPGWAKGRVWPRSYVEAGPYEMYSAEELAFQKRFAFGQLLLNGITTAAPIASLFYRAWGETVAEFEAAADAAGELGLRVYLSPAFRSGGMVLEEPGRMFPVFDEERGFQGLKEAIAFIEKQSGRHGDLVRGMLAPDRVETSTLGLIERTDAAARELGCKFRLHMAQGVMEVDTVRKLHGSTAPVWLAKAGLLSERLIAPHATNATEEDLALYAENGVSIVHCPLVSSRGGSTLSSFSSCRKRGINIAMGTDTAPADMFMNLLVGLITCRINDGAPDQIRCADLFDAATLGGARALGRSDLGHLSSGARADIAVFDLDDAVMAPSVDPITTLVTGGSGKVTRAVFVDGRLSMRERQVAHIDMRRAREQAQAQFDRLIAKYPERSWANPPVSEIFPPSYQVEVAQHGEGHHHHHH,soluble
4,MSSEWDNKIIPVIGVPLEARKLPSARIPKKPKETDGNSTETVVNSTEKPEERKEKPPKPPKQKQKQKQNLNNKFLKNLITDTGKPASMNGLFVAEEEAKLTLLEKKAMKIHIEENTLSDPQFPTYTTKHQGRIKFKCRLLWLLNKETFMKRANKPHLANIVVKQAHMEAVPPKQNVNQKKQMKNQEKNKNAKPLMDIKFDEKARSFKQRTGEDYNGGFDISSNYQGSEGSGGYQHIGNTWPNTESQWNYDPSTNGYSTFLASTPDTSTTYQPYQPSEYANFSRQLESSSSSVPVYGGATDPTQTSTSSVISFGVAVHEPISESSASAYDDPTRNHWNPQSATSDYSTVPTSGTSNVFPSYQTSEYSSFPNQTPSSSSSYQQSSQYTPMVPDLINQAINGYTTPQYNQPNQQVNQDFNTNQFSASLASLHSQPLEASEDELLRQKRLMEIEQELHMINAKKMHMQMEAEIRHREMELAKRQQLMELRERELRDRECFENGRTHAGHTGQHNYDNREYSSHHESKNPSVGGNYSSTSRSISINEDPAASHYYGQRVERKKRLGGELARRQGRVYEEVSSPGPLKRSADQSRAGSIQPAEGPSRKQRRRNNKNVQVTVNMEDISDDEEV,not soluble
5,MHTTSSPNETLSSWDSSARREQASKNNIYVTLSAKQHPRILQIYGGAYYNPKLERLLENIVRKLTVGLQNSYKSYSLTILNTQSVNAFALPNGSIYITRGMLTLANDSSEVAAILAHEIAHITANHGILRLQKKAELKTTERISSNLLSLSGEKIHKSIENKRKLAQFSRNQELQADSIALEMLKQAGYDPFSLPRFLQSMAAYSLFRSIPGSQNAPLGFLITHPTTPQRIRLAIEKAHKISSANTGNTDRDAFLKSIDGMIFGGSPHTGFVQNNQFIHPQLGITFSVPQNFIIENSAHTVWASGPDKIAIRFDAIPHPAEISASEYLQSGWLAGLDKSSVHPFIIQGLPGAHARARNAQWQFDVVVILFNNHVLRFLTAAPHDSQNFAEIAEKTVQSFRFLSSSQLKKLKPLRIRIVRVQKGESVASLAKKMQNIPHNEKLFRILNSLSPSQALQTGAAVKIITQLEHHHHHH,not soluble
6,MGHHHHHHSHMASATQSVSRLQSIVAGLKNAPSDQLINIFESCVRNPVENIMKILKGIGETFCQHYTQSTDEQPGSHIDFAVNRLKLAEILYYKILETVMVQETRRLHGMDMSVLLEQDIFHRSLMACCLEIVLFAYSSPRTFPWIIEVLNLQPFYFYKVIEVVIRSEEGLSRDMVKHLNSIEEQILESLAWSHDS,not soluble
7,MPRYCIVNADDFGYSKGVNYGILEAFQHGVVTSATLMANMPAAEHAARLAKEHPELGVGIHFVLTCGRPLADVPSLVNENGEFPRRGEALAGARRSDIERELAAQLERVFSLGLSPTHIDSHHHVHEHPNVFPVVEQLAERYRLPIRPVRTTRPHRLATVDVFFPDFYGDGLTKDHFLTLIDRIGDGQTAEVMCHPAYMDAPLAAGSSYCRQRIEELAVLTDPALSKEIAERGVQLITYREFYQL,not soluble
8,MKFKSRVQMLNYVIGKKPDIMKTVDRRAEKEGVTDDNRLLDYKLLVISVLDAEAVYDEDRPIEEKKFSTSQEVDKYLETRFKEHMDSAWKEMFNK,not soluble
9,MAHHHHHHMPSDRVPSGDGFNNPYGNTTLVGNWLEDRLQQRIVHKRRGGAAATWCAQGIFEDPAVTMARHPAEAQAALLHSTYDVDYGHRPGRTQRTASGGVDNSAAASTLMRGSKHNANAAGPGSASSTAKGGIDKVLLFSIDPVADPAAPLPLSTNADTYGAFYYGNDNGSVDNNGARHAGSATGATTSSPADQGDGGATAPPADADRNLYDSVSRAVAAAAAPSSSFRMPRAPMQRGANADATFSSSPVPRRHMLSLGVATTSTFGHTGWTLASSSATSAADHVGAAPWRPLQRHRLPNKDSMDDERWCSSKQAADTPVEHFTLQQRLPPVRM,not soluble
10,MGSDKIHHHHHHMKTGRNDPCPCGSAKKYKNCCMDAISKQNSALLDDISQVTAMNPNLTHDELDLVLQQKAFAQNNRPIADFCGLSPAQMANWLYAPFNELNCVAISPPDDLSSSPVMRYLEVILDEAMAQNGSFKATSKGNLPTKLVKQASGLLPEFAVAQFSTNISISEYAGSNEDKFNALHYTRILAELSGIIYRKSGSYHVKKAAQKQYQSQGLTAFFLPMLEAAITKYNWGYLDSWEHDAVLSTFWLFMLWRLQSHASVDELIDEVATAFPDLLHQFPADKYRTPQAQLGMGIDSRFLKRFLQFWGFITLDPKRLFAEPREPRKVQIQPLLTQTFKFTI,not soluble
11,MVNRLINSRSPYLRKAANQPVEWFEWGEEAFAKAKKEDKPILLSIGGVWCHWCHVMAKESFENEEIAEMINRNFVAIKVDRDERPDIDKRYQEFVMATTGSGGWPLTVFLTPDGKPFFGGTYFPPEDRYHLPGFKTVLRKIAEMWRHDRERLLKSAEELTEAVRRYAE,not soluble
12,MCMTRQPAVAGQFYTDEPKRLRGDLQRMIPAETMKQRVKGIVAPHAGYVYSGHVAGAVYGAIEIPSTVVILGPNHHGFGAAAALYPEGEWLTPLGSVPIDVRLSQLVQKHVPLVEPEMSAHRFEHSLEVQVPFLQYRADVSIVPICLGFGDYERCRLLGEGIARAIREFGEDVLIVASSDMTHYESADAARAKDEQAIAEVLALNPEGLVQICRRKNITMCGVIPATVMLVTAKALGASKAELISYATSGDVTGDNRQVVAYAAMAVYLEHHHHHH,not soluble
13,MRKSDREAFLSSVLGNEQPPAHLARTVIEEKLRNAIIDGSLPSGTALRQQELATLFGVSRMPVREALRQLEAQSLLRVETHKGAVVAPLITEDAVDAYALRILLESEALRLSIPLLDADDLAAAASYIEQLEVETDFGQIGRLNRMFHLSLYAKTHNKRLMRLVEEGLNEEERFLRFNLSSMGLGKLSQDDHWQLLRLAEQKAVEPCVEALQYHLNRGVQAVTQYLQSQKAGNVKPARTKKNTPA,soluble
14,MSLNNRIIYVVSDSVGETAELVVKAALSQFNGSADDTHVRRIPYVEDIGTINEVISLAKADGGIICFTLVVPEIREYLIAEAEKANVLYYDIIGPLIDKMETAYGLTAKYEPGRVRQLDEDYFKKVEAIEFAVKYDDGRDPRGILKADIVLIGVSRTSKTPLSQYLAHKRLKVANVPIVPEVDPPEELFNVDPKKCIGLKISPDKLNHIRKERLKSLGLNDKAIYANINRIKEELEYFEKIVDRIGCQVVDVSNKAVEETANIIHHLKTKNIEGHHHHHH,soluble
15,MKWDEYVDIFDTDVVSKIIILRNLPINEGWIDINELAEELQLNKKSVKKYVELLKDDITYYVVDNDASLAFEKGHGYRLNLASSQAFQKLYTAIFRDSLTYQVMEDLFWGRFNGIVPATAKYHTSDATIRRLLKGFTEILAPLGLVINKSTWKIEGNEAYLRHFAYTIFMDLIRDTWPFDYIQETEVAQTVQKMMAFFNVEVAETVTRRVKYMVAISKVRSAQGAEYRPSAEQETYLEGNKHYQAFIEEMTATTLFLNKNDLTFVYFFLLANDQFYQDEATAQAILAHFDETEAPVYMLTHLVQHFLLEEIHMTPQLEKIRPQIFYYLFATHLFAELYYVQNVKMYNVFWNKIKEKYPVLLAELIQGLNQLYEQTGNELFTNKEFLALRYSSVLALSNDLIHREQKIVLGLKSGLPVLEEERVKLSIENNFRRFYALEVLRYSEASKEEWQNIDLLLVTSLADVETGHPEIFLFSSELTFEQYNRLNQKIVKINEKRTTSL,not soluble
16,MGSDKIHHHHHHMTNKTNAASLDIVGIGNAIVDVLTTTDDSFLKKLSFDKGSMTLIDEKKAKELYEMTTNRIQKSGGSVANSLACVAQLGGKAAFIGRVRDDKLGEIFTEEISTTGTIFKTPPSSVGPSTARCIIFVTPDAQRTMCTYLGASVLLEPKDIDLSLVREAKILYLEGYLWDNPAAKNAFIKAAEIAKNAGRKVALSLSDSFCVSRHRESFIKLVEEHIDILFANEDEITNLYETSSLSNALEKLKKKCDLAAITIGEKGSILISNGKEIKIDPFILGKAIDTTGAGDLYAGAFLKGYADGLKPELSAKIGSICAGQIVTQLGSRSNTDLLNLINSHLEA,not soluble
17,MVIHCKMFNNQRKTLAKEYHELYMNNNTETRKNKHLNERERYAIELYLKEKYTVTEIAKRLGRHRRTIEREITRGTIYLQNSDLTYRKEYCADVAQRRYVENGKNKGPRLKIGNDHELVRYIESKIINEKYSPDAVIGQIKAKGLKFKTSICTKTLYNYIDRGDVFLRLTNKYLPVKKDGKKRIYQRVKKIALKNLKGSSIEERPKEVNDRKEYGHWEMDCVVGRKNSAAVLLVLSERKTREEIILKLPDKTQESVIKAIDELERKYRRKFREKFKTITVDNGTEFLDYRGIEKSKTEPGKDRTKVYYAHPYSSWERGTNENINKLIRRFIPKGTDISKVSKAKIKSIERWINEYPRRMFGYRSAIEMAV,not soluble
18,MGHHHHHHSHSQIQGVQTNDDLNNDSDDSSDNCVIVGFVKPLAERTPELVELSSDSEDLGSYEKMETVKTQEQEQSYSSGDSDVSRCSSPHSVLGKDEQINKGHCDSSTRIKSKKEEKRSTSLSSPRNLNSSVRGDRVYSPYNHRHRKRGRSRSSDSRSQSRSGHDQKNHRKHHGKKRMKSKRSRSRESSRPRGRRDKKRSRTRDSSWSRRSQTLSLSSESTSRSRSRSSDHGKRRSRSRNRDRYYLRNNYGSRYKWEY,not soluble
19,MGSDKIHHHHHHMRVKYPSIPHLPWSPGLQNDDRRITSLSGFIGKEVVVTEKLDGENTSLYRDDLHARSLDMRPHPSRTWVKAERGRVAHDIPLGWRFCGENVYAVHSLKYDDLDGYFYLFSVWDDLNVSRPWDEVRGWAERLSLPTPRELYRGPWDEAALQALDPDPERMEGYVVRVTAAIPYADFGRKVAKWVRRGHVQTDQHWLSQPVEPNGLKRQEQS,not soluble
